# Data taken from PMC3460625 (PLoS Pathogens, 2012).
# T1: Nup98 (endogenous) (human (endogenous in HEK 293 and HeLa), UniProt P52948 1-880)
# T1 construct: also called nucleoporin Nup98
# T1 sequence (looked up): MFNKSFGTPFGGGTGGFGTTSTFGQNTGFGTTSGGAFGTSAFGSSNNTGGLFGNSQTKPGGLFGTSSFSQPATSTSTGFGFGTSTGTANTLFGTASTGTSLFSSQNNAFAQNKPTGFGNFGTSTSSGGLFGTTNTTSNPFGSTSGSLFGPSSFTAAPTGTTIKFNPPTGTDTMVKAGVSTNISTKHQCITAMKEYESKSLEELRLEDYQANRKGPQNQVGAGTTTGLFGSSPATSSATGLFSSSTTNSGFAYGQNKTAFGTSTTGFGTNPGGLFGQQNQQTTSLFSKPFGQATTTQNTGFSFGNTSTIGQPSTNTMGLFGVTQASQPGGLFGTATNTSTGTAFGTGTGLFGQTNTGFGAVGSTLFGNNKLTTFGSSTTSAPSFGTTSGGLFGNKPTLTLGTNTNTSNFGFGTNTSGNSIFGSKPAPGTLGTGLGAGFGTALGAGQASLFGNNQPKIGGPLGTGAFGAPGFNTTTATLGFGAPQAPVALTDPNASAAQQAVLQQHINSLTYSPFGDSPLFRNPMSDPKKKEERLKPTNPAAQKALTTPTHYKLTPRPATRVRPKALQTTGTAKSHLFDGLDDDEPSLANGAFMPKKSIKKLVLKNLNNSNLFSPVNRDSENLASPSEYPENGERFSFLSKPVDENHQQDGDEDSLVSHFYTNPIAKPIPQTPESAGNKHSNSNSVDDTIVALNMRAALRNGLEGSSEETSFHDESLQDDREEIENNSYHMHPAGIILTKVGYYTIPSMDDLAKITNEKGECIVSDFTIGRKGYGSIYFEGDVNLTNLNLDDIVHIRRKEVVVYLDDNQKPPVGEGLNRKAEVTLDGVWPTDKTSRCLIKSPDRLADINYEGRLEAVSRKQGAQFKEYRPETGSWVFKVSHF
# B1: Rae1 (endogenous) (natural protein, human (endogenous in HEK 293 and HeLa), UniProt P78406 1-368, looked up)
# chain: MSLFGTTSGFGTSGTSMFGSATTDNHNPMKDIEVTSSPDDSIGCLSFSPPTLPGNFLIAGSWANDVRCWEVQDSGQTIPKAQQMHTGPVLDVCWSDDGSKVFTASCDKTAKMWDLSSNQAIQIAQHDAPVKTIHWIKAPNYSCVMTGSWDKTLKFWDTRSSNPMMVLQLPERCYCADVIYPMAVVATAERGLIVYQLENQPSEFRRIESPLKHQHRCVAIFKDKQNKPTGFALGSIEGRVAIHYINPPNPAKDNFTFKCHRSNGTNTSAPQDIYAVNGIAFHPVHGTLATVGSDGRFSFWDKDARTKLKTSEQLDQPISACCFNHNGNIFAYASSYDWSKGHEFYNPQKKNYIFLRNAAEELKPRNKK
# notes: also called host Rae1; cellular Rae1
# Target: T1, Nup98 (endogenous)
# Assay: SEC + other: sucrose gradient sedimentation
# Conditions: partners not purified
binder,measurement,value
B1,stoichiometry N,1
